Two molecules from article PMC2880568 (PLoS Pathogens, 2010) can be followed below.

Holding throughout (conditions): both partners purified
The target in assay [1] is T1, EloBC (elongin B - elongin C heterodimer) (UniProt Q15370 1-118; Q15369 16-111).
T1 construct: also called EloB-EloC heterodimer; full length EloBC
Put plainly: NMR titration.

In assay [2] the target is T1, EloBC (elongin B - elongin C …). Put plainly: SEC.
For assay [3] the target is unchanged. Put plainly: ITC.

T1 sequence (Q15370 whole entry, chain 1 of 2): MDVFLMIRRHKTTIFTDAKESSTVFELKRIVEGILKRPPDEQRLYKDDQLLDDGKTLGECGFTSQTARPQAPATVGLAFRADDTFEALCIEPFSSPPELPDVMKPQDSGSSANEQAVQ
T1 sequence (Q15369 16-111, chain 2 of 2): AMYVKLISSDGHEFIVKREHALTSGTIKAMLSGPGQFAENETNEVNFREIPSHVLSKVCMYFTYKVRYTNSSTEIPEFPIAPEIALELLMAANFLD

B1: wild type Vif SOCS-box protein (domain or fragment)
chain: not shown
notes: source: E. coli BL21(DE3), purified (Ni-NTA, Superdex 75)
Turning to B1, in assay [1], the “KD fitted to the peak of EloB Asp-101” value was 1710 nM, the “KD fitted to the peak of EloB Lys-104” value was determined as 3560 nM, the “KD fitted to the peak of EloB Met-103” value came out at 1730 nM and the “KD fitted to the peak of EloB Val-102” value was found to be 430 nM. Moreover, in assay [2], the “stoichiometry N” value amounted to 1. In addition, the Kd in assay [3] was 1200 nM.

B2: ΔPPL Vif SOCS-box protein (domain or fragment)
chain: HNKVGSLQYLALAALITPKKIKAAAPSVTKLTEDRWNK
notes: as for B1
Molecule B2 showed a Kd in assay [3] of 1250 nM.
